Tested on: lung-resident ILCs
Experiment: SMART-Seq2 plate-based scRNA-seq of lung-resident ILCs from PBS-, IL-25- or IL-33-treated mice, differential gene expression by logistic regression (Tables 3, 4)
Assay type: in vivo, mouse
Text: Mice and in vivo ILC activation. C57B1/6J mice were purchased from the Jackson Laboratory. Nmur1-LacZ reporter mice with a LacZ cassette knocked into the Nmur1 locus were rederived from Nmur1^tm1.1(KOMP)Vlcg sperm obtained from the trans-NIH Knock-Out Mouse Project (KOMP) Repository. NMU-deficient mice (NMU-KO) were rederived from B6.129S2-Nmu<tm1Mko> embryos from the RIKEN BioResource Center. For experiments with Nmur1-LacZ (Nmur1-KO) and NMU-KO mice, littermates that were either homozygous or heterozygous for the wild type allele were used as controls. Mice were housed under specific-pathogen-free conditions. For experiments, mice were matched for sex and age, and most mice were 6-10 weeks old. Where indicated, mice were anesthetized with Isoflurane and treated intranasally with the indicated stimuli (500 ng IL-25, 500 ng IL-33, or 20 μg Neuromedin U) daily for three consecutive days. The total administered volume was 20 μl for all conditions. Mice were randomly assigned to treatment groups after matching for sex and age. […] Mice were treated intranasally with 10 μg HDM on day 0, 7, 8, and 9, prior to sacrifice on day 10. All experiments were conducted in accordance with animal protocols approved by the Harvard Medical Area Standing Committee on Animals or BWH IACUC.
Fluorescence-activated cell sorting of innate lymphoid cells. After dissociation, single cell suspensions were incubated with CD90.2 MicroBeads (Miltenyi Biotec) on ice and enriched for CD90.2^+ cells by magnetic separation using LS columns according to the manufacturer's protocol. CD90.2^+ lung cells were then stained on ice with antibodies for sorting. ILCs were defined as 7AAD^− CD45^+ CD90.2^+ CD127^+ Lineage (CD11b, CD11c, CD19, NK1.1, […], CD4, CD8a, TCRβ, TCRγδ)^− cells and sorted on a BD FACS Aria (BD Biosciences).
For full-length scRNA-Seq, single ILCs were sorted into 96-well plates containing 5 ul TCL Buffer (QIAGEN) with 1% 2-Mercaptoethanol, centrifuged and frozen at −80° C. SMART-Seq2 protocol was carried out as previously described^23 with minor modifications in the reverse transcription step. cDNA was amplified with 22 cycles and fragmented with one-eighth of the standard Illumina NexteraXT reaction volume. Single-cell libraries were pooled and paired-end sequenced (38 bp×2) with a 75 cycle Nextseq 500 high output V2 kit.
Analysis of SMART-Seq2 plate-based scRNA-Seq data. Reads were aligned to mm10 using Kallisto (Bray, N. L., Pimentel, H., Meisted, P. & Pachter, L. Near-optimal probabilistic RNA-seq quantification. Nat Biotechnol 134, 525-527, doi:10.1038/nbt.3519 (2016)) quant, version 0.42.3. The R package tximport (Soneson, C., Love, M. I. & Robinson, M. D. Differential analyses for RNA-seq: transcript-level estimates improve gene-level inferences [version 2; referees: 2 approved]. F1000Research 4, doi:10.12688/f1000research.7563.2 (2016)), version 1.2.0, was used to convert the output to gene counts and traditional TPM values. Because of the variability in read counts per cell across plates, even from the same condition, as well as in the number of genes per cell across conditions, QC was performed for each of eight plates individually in order to remove cells that were outliers with respect to either measure. Out of 752 cells, 606 cells met QC criteria (234 from control, 152 from IL-25 treated mice, and 220 from IL-33 treated mice), and the number of genes per cell in this set ranged from 1,625 to 6,375. Genes that were not expressed with log(TPM)>2.5 in at least two cells were removed from further analysis. Subsequent analysis proceeded analogously to the droplet-based RNA-seq analysis, with parameter settings that reflected both the wider dynamic range of expression and much smaller cell numbers. The minimum ILC signature score required in ILC type assignment was 0.3. Variable genes were identified by running MeanVarPlot with x.low.cutoff=0.1, y.cutoff=1.5, and x.high.cutoff=10, resulting in a set of 519 genes. […]

B1: IL25 (protein, UniProt Q8VHH8 17-169, looked up)
Interleukin-25: VSLRIQEGCSHLPSCCPSKEQEPPEEWLKWSSASVSPPEPLSHTHHAESCRASKDGPLNSRAISPWSYELDRDLNRVPQDLYHARCLCPHCVSLQTGSHMDPLGNSVPLYHNQTVFYRRPCHGEEGTHRRYCLERRLYRVSLACVCVRPRVMA
  0610031J06Rik expression coeff: 0.555
  1700017B05Rik expression coeff: −1.49
  1700113H08Rik expression coeff: −0.86
  4632428N05Rik expression coeff: 1.28
  AA467197 expression coeff: −0.724
  AI593442 expression coeff: −2.55
  AI836003 expression coeff: −0.781
  AW112010 expression coeff: 0.787
  Abtb2 expression coeff: 0.292
  Acot7 expression coeff: 0.807
  Adrbk1 expression coeff: 0.798
  Adsl expression coeff: −1.77
  Ahcyl2 expression coeff: −1.01
  Amd1 expression coeff: −0.74
  Anxa2 expression coeff: 0.693
  Ap3d1 expression coeff: 0.719
  Arf5 expression coeff: 0.592
  Arhgap1 expression coeff: 1.34
  Arhgap26 expression coeff: 0.821
  Asl expression coeff: 1.17
  Asph expression coeff: −1.27
  Atp8b4 expression coeff: 1
  Atxn7l3b expression coeff: 0.557
  Bcl2a1d expression coeff: 0.357
  Bcl3 expression coeff: 1.33
  Bcl6 expression coeff: 1.29
  Bmp2 expression coeff: −0.856
  Brix1 expression coeff: −0.00742
  C1qbp expression coeff: −0.742
  Cap1 expression coeff: 1.28
  Cblb expression coeff: 1.08
  Ccdc50 expression coeff: 1.05
  Ccdc142 expression coeff: −1.86
  Ccng1 expression coeff: 0.622
  Ccr2 expression coeff: −1.53
  Cd247 expression coeff: 1.16
  Chdh expression coeff: −0.136
  Chordc1 expression coeff: 1.4
  Chst11 expression coeff: −0.0352
  Cirbp expression coeff: −1.41
  Commd10 expression coeff: −0.867
  Cox10 expression coeff: 0.786
  Cpsf7 expression coeff: 0.986
  Crlf2 expression coeff: 0.355
  Csf1 expression coeff: −1.01
  Cst7 expression coeff: −0.0555
  Ctla4 expression coeff: 1.48
  Ctsw expression coeff: −0.0379
  Cybrd1 expression coeff: −0.158
  Dcaf12 expression coeff: 0.717
  Ddrgk1 expression coeff: −0.21
  Ddx20 expression coeff: −1.24
  Ddx58 expression coeff: 0.528
  Dennd5a expression coeff: 0.929
  Dgka expression coeff: −0.0503
  Dhx35 expression coeff: −1.63
  Dhx37 expression coeff: −0.288
  Dhx58 expression coeff: 2.3
  Dkk3 expression coeff: −0.0269
  Dock10 expression coeff: −0.792
  E030030I06Rik expression coeff: −0.87
  Ecm1 expression coeff: −0.0192
  Endod1 expression coeff: 0.398
  Epsti1 expression coeff: 1.79
  Eva1b expression coeff: 0.99
  Exosc4 expression coeff: −0.31
  Extl3 expression coeff: −0.16
  Fam118a expression coeff: −0.764
  Fbxl21 expression coeff: 12.2
  Ffar2 expression coeff: 1.36
  Fhl2 expression coeff: −1.07
  Fosb expression coeff: 0.156
  Foxo3 expression coeff: 2.06
  Fus expression coeff: −0.388
  Gal3st3 expression coeff: −1.01
  Gba expression coeff: −0.05
  Gbp4 expression coeff: 0.318
  Gbp6 expression coeff: 0.949
  Gbp9 expression coeff: 0.745
  Gga1 expression coeff: 0.739
  Gigyf1 expression coeff: −0.844
  Glrx expression coeff: 0.346
  Gm12250 expression coeff: 3.54
  Gnai2 expression coeff: 0.501
  Gng2 expression coeff: 1.06
  Gnl3l expression coeff: −0.617
  Gp49a expression coeff: 1.04
  Gpr108 expression coeff: 0.205
  Grn expression coeff: −0.326
  Gskip expression coeff: 0.645
  Gucd1 expression coeff: −0.0721
  H2-T9 expression coeff: 0.437
  H2-T10 expression coeff: 0.799
  H2-T22 expression coeff: 0.0651
  Herc6 expression coeff: 0.579
  Hpcal1 expression coeff: −0.169
  Hsph1 expression coeff: 0.237
  Idh2 expression coeff: −0.56
  Ifi35 expression coeff: 0.307
  Ifngr2 expression coeff: −0.761
  Ifrd2 expression coeff: −1.53
  Igfbp4 expression coeff: −2.9
  Igsf5 expression coeff: −0.93
  Il2rb expression coeff: 0.699
  Il5 expression coeff: 1.4
  Il13 expression coeff: 1.61
  Impact expression coeff: −1.46
  Inpp1 expression coeff: 1.79
  Inpp4b expression coeff: −0.752
  Inpp5b expression coeff: 0.937
  Irf4 expression coeff: 1.11
  Irf7 expression coeff: 0.423
  Isg15 expression coeff: 2.03
  Isg20 expression coeff: 1.54
  Itgae expression coeff: −0.182
  Kit expression coeff: −0.406
  Krit1 expression coeff: 0.612
  Lamp2 expression coeff: 0.692
  Lancl1 expression coeff: −1.11
  Lat2 expression coeff: −0.0259
  Lcmt2 expression coeff: −2.32
  Lgals3bp expression coeff: 0.804
  Lgals3 expression coeff: 0.303
  Lilrb4 expression coeff: 0.943
  Lpcat2 expression coeff: −0.773
  Lsm6 expression coeff: −0.616
  Lxn expression coeff: 0.065
  Ly6a expression coeff: 0.412
  Map2k4 expression coeff: 1.89
  Marf1 expression coeff: 3.17

Source: patent US20210386829A1, “COMPOSITIONS AND METHODS FOR MODULATING CGRP SIGNALING TO REGULATE INNATE LYMPHOID CELL INFLAMMATORY RESPONSES” (The Broad Institute, Inc., priority 2018, published 2021)
